# Target: Tet DNA binding domain only (UniProt P04483 1-207)
# Assay: mammalian two-hybrid luciferase reporter, Phoenix cells
# Tet DNA binding domain only, sequence (P04483 whole entry, the tested form may be a part): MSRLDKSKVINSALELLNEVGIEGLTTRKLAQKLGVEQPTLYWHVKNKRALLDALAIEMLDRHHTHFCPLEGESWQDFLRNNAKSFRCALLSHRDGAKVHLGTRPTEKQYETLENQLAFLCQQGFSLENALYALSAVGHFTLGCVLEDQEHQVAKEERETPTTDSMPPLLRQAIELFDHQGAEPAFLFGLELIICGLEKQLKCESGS
binder,measurement,value
"VP16 activation domain only (other, also called pVACT) APPTDVSLGDELHLDGEDVAMAHADALDDFDLDMLGDGDSPGPGFTPHDSAPYGALDMADFEFEQMFTDALGIDEYGG",binding result,no binding

# From US9040462 (RIGEL PHARMACEUTICALS, dated 2015)
